Substitutions are numbered along the chain they refer to. In names and notes the source's numbering stands.
What was measured:
[1] = molecular target: human FGFR1c/KLB receptor complex on iLite FGF21 Assay Ready Cells (human, UniProt P11362 22-822; Q86Z14 1-1044); experiment: cell-based or functional assay; on Mean E max (%): reference of the scale not given here
[2] = molecular target: T1, human beta-Klotho (KLB) (human, UniProt Q86Z14 53-997); experiment: BLI off-rate screening, mAb captured, KLB analyte;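 further: Off-rate taken from the dissociation phase, biosensors held in D-PBS with 0.1% BSA over 1800 s, antibody supernatants diluted to 25 µg/mL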
T1 construct: bought protein, used as analyte in the off-rate screening; also called human KLB; β-Klotho
T1 sequence (looked up): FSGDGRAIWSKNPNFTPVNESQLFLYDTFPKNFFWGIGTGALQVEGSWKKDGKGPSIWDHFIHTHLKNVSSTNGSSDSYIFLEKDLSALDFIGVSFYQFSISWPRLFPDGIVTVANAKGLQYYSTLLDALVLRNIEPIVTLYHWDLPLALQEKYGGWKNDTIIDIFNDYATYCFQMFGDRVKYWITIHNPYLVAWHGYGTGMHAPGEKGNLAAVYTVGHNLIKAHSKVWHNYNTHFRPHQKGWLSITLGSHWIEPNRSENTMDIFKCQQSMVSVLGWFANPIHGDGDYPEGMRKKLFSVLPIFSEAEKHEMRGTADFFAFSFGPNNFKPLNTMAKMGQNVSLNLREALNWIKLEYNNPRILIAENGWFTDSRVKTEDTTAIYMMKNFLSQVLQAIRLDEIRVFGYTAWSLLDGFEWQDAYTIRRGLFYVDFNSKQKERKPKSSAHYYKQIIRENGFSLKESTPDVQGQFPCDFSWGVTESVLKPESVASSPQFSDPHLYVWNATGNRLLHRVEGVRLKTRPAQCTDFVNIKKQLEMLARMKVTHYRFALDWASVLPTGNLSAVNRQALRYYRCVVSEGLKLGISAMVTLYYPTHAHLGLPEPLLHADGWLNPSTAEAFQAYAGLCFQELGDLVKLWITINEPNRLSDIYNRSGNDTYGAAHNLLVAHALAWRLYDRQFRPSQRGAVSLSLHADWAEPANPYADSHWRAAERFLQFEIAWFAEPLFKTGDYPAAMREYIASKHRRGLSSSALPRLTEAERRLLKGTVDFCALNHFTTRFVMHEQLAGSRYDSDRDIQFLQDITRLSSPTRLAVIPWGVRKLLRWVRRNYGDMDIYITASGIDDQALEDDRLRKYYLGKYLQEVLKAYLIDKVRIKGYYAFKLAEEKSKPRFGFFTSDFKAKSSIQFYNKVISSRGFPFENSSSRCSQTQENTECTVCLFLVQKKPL

[3] = molecular target: T2, human beta-Klotho (KLB) (human, UniProt Q86Z14 53-997); experiment: SPR
T2 construct: bought protein; also called human KLB
T2 sequence (looked up): T1 sequence (looked up)

[4] = molecular target: human FGFR1c + KLB receptor complex on HEK293 iLite FGF21 reporter cells (human, UniProt P11362 22-822; Q86Z14 1-1044); experiment: cell-based or functional assay
Chain of human FGFR1c + KLB receptor complex on HEK293 iLite FGF21 reporter cells (P11362 22-822, chain 1 of 2): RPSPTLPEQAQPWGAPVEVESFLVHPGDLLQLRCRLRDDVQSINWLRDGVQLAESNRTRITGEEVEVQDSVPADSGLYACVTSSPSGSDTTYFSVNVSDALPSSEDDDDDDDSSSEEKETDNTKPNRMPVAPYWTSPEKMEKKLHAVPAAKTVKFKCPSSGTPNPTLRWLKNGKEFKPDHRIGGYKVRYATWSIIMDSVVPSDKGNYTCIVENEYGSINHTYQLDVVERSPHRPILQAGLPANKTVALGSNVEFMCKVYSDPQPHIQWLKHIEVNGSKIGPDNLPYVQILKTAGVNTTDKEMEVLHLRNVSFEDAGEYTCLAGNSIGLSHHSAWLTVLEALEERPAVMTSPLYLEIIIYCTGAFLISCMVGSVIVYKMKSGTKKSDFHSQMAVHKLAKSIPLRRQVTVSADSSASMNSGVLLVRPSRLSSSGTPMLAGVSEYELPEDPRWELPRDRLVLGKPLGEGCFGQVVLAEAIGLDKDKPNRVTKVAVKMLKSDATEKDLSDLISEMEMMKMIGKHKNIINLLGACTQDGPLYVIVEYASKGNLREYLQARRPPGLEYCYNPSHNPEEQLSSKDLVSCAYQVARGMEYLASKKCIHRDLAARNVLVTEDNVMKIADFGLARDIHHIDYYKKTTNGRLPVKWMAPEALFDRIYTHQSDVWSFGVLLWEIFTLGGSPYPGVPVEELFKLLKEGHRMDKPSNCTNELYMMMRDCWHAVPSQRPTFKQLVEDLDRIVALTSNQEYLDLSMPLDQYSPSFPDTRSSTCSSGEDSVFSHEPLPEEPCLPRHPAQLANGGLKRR
Chain of human FGFR1c + KLB receptor complex on HEK293 iLite FGF21 reporter cells (Q86Z14 whole entry, chain 2 of 2): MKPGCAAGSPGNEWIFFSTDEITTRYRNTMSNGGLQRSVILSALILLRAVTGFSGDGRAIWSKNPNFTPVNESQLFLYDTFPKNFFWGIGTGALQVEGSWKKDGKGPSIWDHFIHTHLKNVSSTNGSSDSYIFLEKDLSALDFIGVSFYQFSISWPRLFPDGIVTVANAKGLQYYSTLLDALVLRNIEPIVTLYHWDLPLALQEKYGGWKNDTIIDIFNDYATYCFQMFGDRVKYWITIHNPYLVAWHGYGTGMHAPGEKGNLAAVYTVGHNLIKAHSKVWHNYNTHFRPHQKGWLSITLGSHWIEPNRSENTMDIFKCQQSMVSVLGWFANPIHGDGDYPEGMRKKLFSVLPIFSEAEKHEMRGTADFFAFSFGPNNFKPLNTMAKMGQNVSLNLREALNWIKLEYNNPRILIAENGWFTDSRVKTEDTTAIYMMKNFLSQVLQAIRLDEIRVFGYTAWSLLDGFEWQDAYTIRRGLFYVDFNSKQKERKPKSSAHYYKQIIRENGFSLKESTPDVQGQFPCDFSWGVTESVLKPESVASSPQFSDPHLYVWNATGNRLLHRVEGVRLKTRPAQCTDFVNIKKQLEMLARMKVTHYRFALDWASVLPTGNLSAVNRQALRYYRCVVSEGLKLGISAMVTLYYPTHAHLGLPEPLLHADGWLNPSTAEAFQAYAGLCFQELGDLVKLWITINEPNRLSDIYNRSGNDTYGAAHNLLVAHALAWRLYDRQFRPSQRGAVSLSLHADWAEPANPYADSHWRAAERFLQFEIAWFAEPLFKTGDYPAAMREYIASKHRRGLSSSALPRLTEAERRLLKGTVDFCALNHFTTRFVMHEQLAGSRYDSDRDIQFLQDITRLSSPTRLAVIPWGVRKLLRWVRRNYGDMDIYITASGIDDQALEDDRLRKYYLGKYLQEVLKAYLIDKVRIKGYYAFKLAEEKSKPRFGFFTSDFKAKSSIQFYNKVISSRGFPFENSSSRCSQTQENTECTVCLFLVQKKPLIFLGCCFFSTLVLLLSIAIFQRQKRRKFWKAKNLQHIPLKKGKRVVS

Chain of human FGFR1c/KLB receptor complex on iLite FGF21 Assay Ready Cells (P11362 22-822, chain 1 of 2): as the sequence (P11362 22-822, chain 1 of 2) above
Chain of human FGFR1c/KLB receptor complex on iLite FGF21 Assay Ready Cells (Q86Z14 whole entry, chain 2 of 2): as the sequence (Q86Z14 whole entry, chain 2 of 2) above

B1: 16H7 variant with light chain substitution S55P (antibody, V domains shown)
VH: not shown
VL: SYVLTQPPSVSVAPGQTARITCGGNNIGSESVHWYQQKPGQAPVLVVYDDSDRPPGIPERFSGSNSGNTATLTISRVEAGDEADYYCQVWDGNSDHVVFGGGTKLTVLG
B1 was tested, and the “Mean E max (%)” value [1] was 99%, the “Mean EC50” value [1] was 109 pM and the koff [2] was 3.2e-05 s⁻¹.

B2: 16H7 variant with light chain substitution S55R (antibody, V domains shown)
VH: not shown
VL: B1 VL with P55R
B2 was tested, and the “Mean E max (%)” value [1] was 100%, the “Mean EC50” value [1] was 143 pM and the koff [2] was 4.9e-05 s⁻¹.

B3: 16H7 variant with light chain substitution S55T (antibody, V domains shown)
VH: not shown
VL: B1 VL with P55T
For B3, the “Mean E max (%)” value [1] was 100%, the “Mean EC50” value [1] was 109 pM and the koff [2] was 1.3e-05 s⁻¹.

B4: 16H7 variant with light chain substitution S55V (antibody, V domains shown)
VH: not shown
VL: B1 VL with P55V
With B4 the “Mean E max (%)” value [1] was 100%, the “Mean EC50” value [1] was 131 pM and the koff [2] was 4.4e-05 s⁻¹.

B5: 16H7 variant with light chain substitution S55Y (antibody, V domains shown)
VH: not shown
VL: B1 VL with P55Y
For B5, the “Mean E max (%)” value [1] was 113%, the “Mean EC50” value [1] was 126 pM and the koff [2] was 1.8e-05 s⁻¹.

B6: 16H7 variant with light chain substitution V98A (antibody, V domains shown)
VH: not shown
VL: B1 VL with P55S, V98A
In the case of B6, the “Mean E max (%)” value [1] is reported as 99%, the “Mean EC50” value [1] is reported as 139 pM and the koff [2] is reported as 4.6e-05 s⁻¹.

B7: 16H7 variant with light chain substitution V98G (antibody, V domains shown)
VH: not shown
VL: B1 VL with P55S, V98G
For B7, the “Mean E max (%)” value [1] was 105%, the “Mean EC50” value [1] was 118 pM and the koff [2] was 1.1e-05 s⁻¹.

B8: 16H7 variant with light chain substitution V98H (antibody, V domains shown)
VH: not shown
VL: B1 VL with P55S, V98H
With B8 the “Mean E max (%)” value [1] was 103%, the “Mean EC50” value [1] was 107 pM and the koff [2] was 1.8e-05 s⁻¹.

B9: 16H7 variant with light chain substitution V98K (antibody, V domains shown)
VH: not shown
VL: B1 VL with P55S, V98K
With B9 the “Mean E max (%)” value [1] was 106%, the “Mean EC50” value [1] was 111 pM and the koff [2] was 9e-05 s⁻¹.

B10: 16H7 variant with light chain substitution V98L (antibody, V domains shown)
VH: not shown
VL: B1 VL with P55S, V98L
With B10 the “Mean E max (%)” value [1] was 105%, the “Mean EC50” value [1] was 121 pM and the koff [2] was 0.00013 s⁻¹.

B11: 16H7 variant with light chain substitution V98T (antibody, V domains shown)
VH: not shown
VL: B1 VL with P55S, V98T
With B11 the “Mean E max (%)” value [1] was 99%, the “Mean EC50” value [1] was 88 pM and the koff [2] was 3.1e-05 s⁻¹.

B12: 16H7 variant with light chain substitution V98W (antibody, V domains shown)
VH: not shown
VL: B1 VL with P55S, V98W
With B12 the “Mean E max (%)” value [1] was 99%, the “Mean EC50” value [1] was 99 pM and the koff [2] was 5.6e-05 s⁻¹.

B13: 16H7 variant with light chain substitution V98Y (antibody, V domains shown)
VH: not shown
VL: B1 VL with P55S, V98Y
For B13, the “Mean E max (%)” value [1] was 100%, the “Mean EC50” value [1] was 109 pM and the koff [2] was 5.9e-05 s⁻¹.

B14: Ab0180 (antibody, IgG4, V domains shown)
VH: not shown
VL: B1 VL with N25S, P55S
notes: IgG4 PE
B14 showed a koff [3] of 0.00024 s⁻¹, an EC50 [4] of 50 pM and an Emax [4] of 2710%.

B15: Ab0182 (antibody, IgG4, V domains shown)
VH: not shown
VL: B1 VL with D50E, P55S
notes: IgG4 PE
B15 gave a koff [3] of 0.000577 s⁻¹, an EC50 [4] of 20 pM and an Emax [4] of 2290%.

B16: Ab0187 (antibody, IgG4, V domains shown)
VH: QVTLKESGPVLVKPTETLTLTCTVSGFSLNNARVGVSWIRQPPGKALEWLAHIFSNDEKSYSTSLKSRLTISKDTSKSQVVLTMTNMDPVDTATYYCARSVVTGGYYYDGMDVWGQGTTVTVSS
VL: B1 VL with N25S, P55S
notes: IgG4 PE
Work on B16 yielded a koff [3] of 0.000156 s⁻¹, an EC50 [4] of 40 pM and an Emax [4] of 2780%.

B17: Ab0188 (antibody, IgG4, V domains shown)
VH: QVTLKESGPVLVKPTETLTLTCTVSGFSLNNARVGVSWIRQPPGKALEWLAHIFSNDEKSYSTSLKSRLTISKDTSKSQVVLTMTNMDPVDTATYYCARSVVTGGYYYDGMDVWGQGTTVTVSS
VL: B1 VL with D49Y, P55S
notes: IgG4 PE
B17 gave a koff [3] of 0.00084 s⁻¹, an EC50 [4] of 60 pM and an Emax [4] of 2410%.

B18: Ab0189 (antibody, IgG4, V domains shown)
VH: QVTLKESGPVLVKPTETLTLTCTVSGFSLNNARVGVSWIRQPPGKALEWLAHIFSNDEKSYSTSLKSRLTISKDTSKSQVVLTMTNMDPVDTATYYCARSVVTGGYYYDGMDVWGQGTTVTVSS
VL: B1 VL with D50E, P55S
notes: IgG4 PE
In the case of B18, the koff [3] is reported as 0.000387 s⁻¹, the EC50 [4] is reported as 60 pM and the Emax [4] is reported as 2760%.

B19: Ab0190 (antibody, IgG4, V domains shown)
VH: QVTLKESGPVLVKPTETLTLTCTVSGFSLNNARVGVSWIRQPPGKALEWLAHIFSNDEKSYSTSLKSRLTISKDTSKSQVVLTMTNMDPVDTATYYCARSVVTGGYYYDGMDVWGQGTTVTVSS
VL: B1 VL with P55S, D91T
notes: IgG4 PE
B19 showed a koff [3] of 0.000195 s⁻¹, an EC50 [4] of 50 pM and an Emax [4] of 2370%.

B20: Ab0191 (antibody, IgG4, V domains shown)
VH: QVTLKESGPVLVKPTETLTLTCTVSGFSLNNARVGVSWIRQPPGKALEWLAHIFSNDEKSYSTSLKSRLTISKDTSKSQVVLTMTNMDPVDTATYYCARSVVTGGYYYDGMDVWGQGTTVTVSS
VL: B1 VL with P55S, N93E
notes: IgG4 PE
Binder B20 has a koff [3] of 0.000144 s⁻¹, an EC50 [4] of 40 pM and an Emax [4] of 2470%.

B21: Ab0194 (antibody, IgG4, V domains shown)
VH: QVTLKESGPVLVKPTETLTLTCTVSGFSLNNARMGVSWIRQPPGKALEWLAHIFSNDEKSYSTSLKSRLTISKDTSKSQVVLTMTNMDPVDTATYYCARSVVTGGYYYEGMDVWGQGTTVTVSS
VL: B1 VL with N25S, P55S
notes: IgG4 PE
B21 showed a koff [3] of 0.000402 s⁻¹, an EC50 [4] of 60 pM and an Emax [4] of 2550%.

B22: Ab0195 (antibody, IgG4, V domains shown)
VH: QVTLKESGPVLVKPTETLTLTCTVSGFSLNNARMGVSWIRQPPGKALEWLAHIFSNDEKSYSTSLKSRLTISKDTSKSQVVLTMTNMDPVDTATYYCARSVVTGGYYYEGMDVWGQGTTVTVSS
VL: B1 VL with D49Y, P55S
notes: IgG4 PE
Work on B22 yielded a koff [3] of 0.00267 s⁻¹, an EC50 [4] of 140 pM and an Emax [4] of 2030%.

B23: Ab0196 (antibody, IgG4, V domains shown)
VH: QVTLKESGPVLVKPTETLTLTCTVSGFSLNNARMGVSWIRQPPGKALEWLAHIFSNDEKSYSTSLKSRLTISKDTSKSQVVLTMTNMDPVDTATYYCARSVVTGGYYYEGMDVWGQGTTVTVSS
VL: B1 VL with D50E, P55S
notes: IgG4 PE
For B23, the koff [3] was 0.00194 s⁻¹, the EC50 [4] was 120 pM and the Emax [4] was 2050%.

B24: Ab0197 (antibody, IgG4, V domains shown)
VH: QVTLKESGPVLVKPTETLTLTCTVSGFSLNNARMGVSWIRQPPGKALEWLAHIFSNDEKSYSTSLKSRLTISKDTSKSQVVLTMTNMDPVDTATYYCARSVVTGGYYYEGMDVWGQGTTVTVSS
VL: B1 VL with P55S, D91T
notes: IgG4 PE
In the case of B24, the koff [3] is reported as 0.00167 s⁻¹, the EC50 [4] is reported as 80 pM and the Emax [4] is reported as 2000%.

B25: Ab0198 (antibody, IgG4, V domains shown)
VH: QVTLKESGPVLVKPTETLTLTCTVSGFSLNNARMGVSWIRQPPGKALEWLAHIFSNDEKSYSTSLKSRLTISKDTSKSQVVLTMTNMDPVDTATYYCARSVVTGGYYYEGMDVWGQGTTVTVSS
VL: B1 VL with P55S, N93E
notes: IgG4 PE
B25 gave a koff [3] of 0.000346 s⁻¹, an EC50 [4] of 50 pM and an Emax [4] of 2770%.

B26: Ab0201 (antibody, IgG4, V domains shown)
VH: QVTLKESGPVLVKPTETLTLTCTVSGFSLNNARVGVSWIRQPPGKALEWLAHIFSNDEKSYSTSLKSRLTISKDTSKSQVVLTMTNMDPVDTATYYCARSVVTGGYYYEGMDVWGQGTTVTVSS
VL: B1 VL with N25S, P55S
notes: IgG4 PE
Work on B26 yielded a koff [3] of 0.000336 s⁻¹, an EC50 [4] of 50 pM and an Emax [4] of 2490%.

B27: Ab0202 (antibody, IgG4, V domains shown)
VH: B26 VH
VL: B1 VL with D49Y, P55S
notes: IgG4 PE
Work on B27 yielded a koff [3] of 0.00161 s⁻¹, an EC50 [4] of 70 pM and an Emax [4] of 1510%.

B28: Ab0203 (antibody, IgG4, V domains shown)
VH: B26 VH
VL: B1 VL with D50E, P55S
notes: IgG4 PE
B28 showed a koff [3] of 0.00151 s⁻¹, an EC50 [4] of 50 pM and an Emax [4] of 1600%.

B29: Ab0204 (antibody, IgG4, V domains shown)
VH: B26 VH
VL: B1 VL with P55S, D91T
notes: IgG4 PE
B29 gave a koff [3] of 0.00133 s⁻¹, an EC50 [4] of 40 pM and an Emax [4] of 1420%.

B30: Ab0205 (antibody, IgG4, V domains shown)
VH: B26 VH
VL: B1 VL with P55S, N93E
notes: IgG4 PE
In the case of B30, the koff [3] is reported as 0.000334 s⁻¹, the EC50 [4] is reported as 20 pM and the Emax [4] is reported as 2120%.

B31: Ab0208 (antibody, IgG4, V domains shown)
VH: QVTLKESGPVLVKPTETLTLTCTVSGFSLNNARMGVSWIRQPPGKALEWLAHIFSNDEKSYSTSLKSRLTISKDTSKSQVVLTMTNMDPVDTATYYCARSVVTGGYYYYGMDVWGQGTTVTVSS
VL: B1 VL with N25S, P55S
notes: IgG4 PE
In the case of B31, the koff [3] is reported as 0.0021 s⁻¹, the EC50 [4] is reported as 270 pM and the Emax [4] is reported as 1270%.

B32: Ab0212 (antibody, IgG4, V domains shown)
VH: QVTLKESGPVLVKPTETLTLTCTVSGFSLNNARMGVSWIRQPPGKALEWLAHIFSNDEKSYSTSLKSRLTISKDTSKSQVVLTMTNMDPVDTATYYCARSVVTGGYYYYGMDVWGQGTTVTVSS
VL: B1 VL with P55S, N93E
notes: IgG4 PE
With B32 the koff [3] was 0.00185 s⁻¹, the EC50 [4] was 70 pM and the Emax [4] was 1640%.

From patent US20220010021A1 (Sanofi, published 2022)
